The results in this text go back to PMC3017772, “The CaaX specificities of Arabidopsis protein prenyltransferases explain era1 and ggb phenotypes” (BMC Plant Biology, 2010).

Assay [1] deals with recombinant Arabidopsis protein geranylgeranyltransferase type 1 (PGGT1) (Arabidopsis (ecotype Col-0)) (UniProt Q9LX33).
Assay [2] addresses recombinant Arabidopsis protein farnesyltransferase (PFT) (Arabidopsis (ecotype Col-0)) (UniProt Q9LX33).

recombinant Arabidopsis protein geranylgeranyltransferase type 1 (PGGT1) (Arabidopsis (ecotype Col-0)), sequence (Q9LX33 whole entry, chain 1 of 2): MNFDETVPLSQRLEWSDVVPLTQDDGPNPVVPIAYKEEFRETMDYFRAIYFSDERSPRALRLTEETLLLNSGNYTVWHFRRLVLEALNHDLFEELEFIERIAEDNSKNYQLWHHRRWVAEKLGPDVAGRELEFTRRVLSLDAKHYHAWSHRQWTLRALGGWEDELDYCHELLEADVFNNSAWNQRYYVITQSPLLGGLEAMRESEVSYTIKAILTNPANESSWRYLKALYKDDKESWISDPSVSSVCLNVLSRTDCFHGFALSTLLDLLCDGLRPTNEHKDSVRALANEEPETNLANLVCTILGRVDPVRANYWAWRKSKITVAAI
recombinant Arabidopsis protein geranylgeranyltransferase type 1 (PGGT1) (Arabidopsis (ecotype Col-0)), sequence (O80642 whole entry, chain 2 of 2, further chain): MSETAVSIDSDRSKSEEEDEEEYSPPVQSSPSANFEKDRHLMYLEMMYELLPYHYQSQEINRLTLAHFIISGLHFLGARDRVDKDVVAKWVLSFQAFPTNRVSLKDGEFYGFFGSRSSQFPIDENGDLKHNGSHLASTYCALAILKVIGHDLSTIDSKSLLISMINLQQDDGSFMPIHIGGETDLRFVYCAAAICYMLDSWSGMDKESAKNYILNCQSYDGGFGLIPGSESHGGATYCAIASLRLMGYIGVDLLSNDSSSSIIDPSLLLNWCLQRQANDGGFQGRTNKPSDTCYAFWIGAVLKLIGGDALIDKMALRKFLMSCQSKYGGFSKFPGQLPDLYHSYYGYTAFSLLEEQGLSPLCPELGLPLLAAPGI
recombinant Arabidopsis protein farnesyltransferase (PFT) (Arabidopsis (ecotype Col-0)), sequence (Q9LX33 whole entry, chain 1 of 2): as the sequence (Q9LX33 whole entry, chain 1 of 2) above
recombinant Arabidopsis protein farnesyltransferase (PFT) (Arabidopsis (ecotype Col-0)), sequence (Q38920 whole entry, chain 2 of 2, further chain): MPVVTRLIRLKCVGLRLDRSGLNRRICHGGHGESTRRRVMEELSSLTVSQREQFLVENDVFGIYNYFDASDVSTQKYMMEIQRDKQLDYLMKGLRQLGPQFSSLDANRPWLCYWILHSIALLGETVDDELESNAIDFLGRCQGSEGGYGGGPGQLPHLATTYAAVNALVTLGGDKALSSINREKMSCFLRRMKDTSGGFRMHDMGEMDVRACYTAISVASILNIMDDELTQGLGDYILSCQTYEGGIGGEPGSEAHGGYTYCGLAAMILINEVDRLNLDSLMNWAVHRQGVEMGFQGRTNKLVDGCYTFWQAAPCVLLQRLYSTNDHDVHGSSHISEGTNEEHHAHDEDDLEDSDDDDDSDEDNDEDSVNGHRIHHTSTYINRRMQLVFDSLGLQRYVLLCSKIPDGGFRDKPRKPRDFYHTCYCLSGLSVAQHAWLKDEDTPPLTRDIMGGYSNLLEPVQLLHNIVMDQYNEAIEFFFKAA

Turning to GFP-BD-CVII, the Km for the CaaX protein substrate; in vitro prenylation by purified PGGT1 with [1-3H]geranylgeranyl diphosphate, Lineweaver-Burk analysis in assay [1] turned out to be 19 µM. For the same substance, the Km for the CaaX protein substrate; in vitro prenylation by purified PFT with [1-3H]farnesyl diphosphate, Lineweaver-Burk analysis in assay [2] was 6.9 µM.
GFP-BD-CVIL: the Km for the CaaX protein substrate; in vitro prenylation by purified PGGT1 with [1-3H]geranylgeranyl diphosphate, Lineweaver-Burk analysis in assay [1] stood at 17.2 µM. In addition, the Km for the CaaX protein substrate; in vitro prenylation by purified PFT with [1-3H]farnesyl diphosphate, Lineweaver-Burk analysis in assay [2] worked out at 7 µM.
For the substance GFP-BD-CVIM, in assay [1], the Km for the CaaX protein substrate; in vitro prenylation by purified PGGT1 with [1-3H]geranylgeranyl diphosphate, Lineweaver-Burk analysis was found to be 5.8 µM. For the same substance, in assay [2], the Km for the CaaX protein substrate; in vitro prenylation by purified PFT with [1-3H]farnesyl diphosphate, Lineweaver-Burk analysis worked out at 5.4 µM.
Take GFP-BD-CVIQ: the Km for the CaaX protein substrate; in vitro prenylation by purified PGGT1 with [1-3H]geranylgeranyl diphosphate, Lineweaver-Burk analysis in assay [1] is 3.5 µM. In assay [2], the Km for the CaaX protein substrate; in vitro prenylation by purified PFT with [1-3H]farnesyl diphosphate, Lineweaver-Burk analysis turned out to be 5.5 µM.
